B1: PPARd: Peroxisome proliferator activated receptor δ (NR1C2), cDNA driver (protein, UniProt Q03181 1-441, looked up)
Peroxisome …: MEQPQEEAPEVREEEEKEEVAEAEGAPELNGGPQHALPSSSYTDLSRSSSPPSLLDQLQMGCDGASCGSLNMECRVCGDKASGFHYGVHACEGCKGFFRRTIRMKLEYEKCERSCKIQKKNRNKCQYCRFQKCLALGMSHNAIRFGRMPEAEKRKLVAGLTANEGSQYNPQVADLKAFSKHIYNAYLKNFNMTKKKARSILTGKASHTAPFVIHDIETLWQAEKGLVWKQLVNGLPPYKEISVHVFYRCQCTTVETVRELTEFAKSIPSFSSLFLNDQVTLLKYGVHEAIFAMLASIVNKDGLLVANGSGFVTREFLRSLRKPFSDIIEPKFEFAVKFNALELDDSDLALFIAAIILCGDRPGLMNVPRVEAIQDTILRALEFHLQANHPDAQYLFPKLLQKMADLRQLVTEHAQMMQRIKKTETETSLHPLLQEIYKDMY
B2: RARg: Retinoic acid receptor γ (NR1B3), nuclear hormone receptor cDNA driver (protein, UniProt P13631 1-454, looked up)
Retinoic acid receptor gamma: MATNKERLFAAGALGPGSGYPGAGFPFAFPGALRGSPPFEMLSPSFRGLGQPDLPKEMASLSVETQSTSSEEMVPSSPSPPPPPRVYKPCFVCNDKSSGYHYGVSSCEGCKGFFRRSIQKNMVYTCHRDKNCIINKVTRNRCQYCRLQKCFEVGMSKEAVRNDRNKKKKEVKEEGSPDSYELSPQLEELITKVSKAHQETFPSLCQLGKYTTNSSADHRVQLDLGLWDKFSELATKCIIKIVEFAKRLPGFTGLSIADQITLLKAACLDILMLRICTRYTPEQDTMTFSDGLTLNRTQMHNAGFGPLTDLVFAFAGQLLPLEMDDTETGLLSAICLICGDRMDLEEPEKVDKLQEPLLEALRLYARRRRPSQPYMFPRMLMKITDLRGISTKGAERAITLKMEIPGPMPPLIREMLENPEMFEDDSSQPGPHPNASSEDEVPGGQGKGGLKSPA
B3: RARa: Retinoic acid receptor α (NR1B1), nuclear hormone receptor cDNA driver (protein, UniProt P10276 1-462, looked up)
Retinoic acid receptor alpha: MASNSSSCPTPGGGHLNGYPVPPYAFFFPPMLGGLSPPGALTTLQHQLPVSGYSTPSPATIETQSSSSEEIVPSPPSPPPLPRIYKPCFVCQDKSSGYHYGVSACEGCKGFFRRSIQKNMVYTCHRDKNCIINKVTRNRCQYCRLQKCFEVGMSKESVRNDRNKKKKEVPKPECSESYTLTPEVGELIEKVRKAHQETFPALCQLGKYTTNNSSEQRVSLDIDLWDKFSELSTKCIIKTVEFAKQLPGFTTLTIADQITLLKAACLDILILRICTRYTPEQDTMTFSDGLTLNRTQMHNAGFGPLTDLVFAFANQLLPLEMDDAETGLLSAICLICGDRQDLEQPDRVDMLQEPLLEALKVYVRKRRPSRPHMFPKMLMKITDLRSISAKGAERVITLKMEIPGSMPPLIQEMLENSEGLDTLSGQPGGGGRDGGGLAPPPGSCSPSLSPSSNRSSPATHSP
B4: FXR: Farnesoid X Receptor (NR1H4), cDNA driver (protein, UniProt Q96RI1 1-486, looked up)
Bile acid receptor: MVMQFQGLENPIQISPHCSCTPSGFFMEMMSMKPAKGVLTEQVAGPLGQNLEVEPYSQYSNVQFPQVQPQISSSSYYSNLGFYPQQPEEWYSPGIYELRRMPAETLYQGETEVAEMPVTKKPRMGASAGRIKGDELCVVCGDRASGYHYNALTCEGCKGFFRRSITKNAVYKCKNGGNCVMDMYMRRKCQECRLRKCKEMGMLAECMYTGLLTEIQCKSKRLRKNVKQHADQTVNEDSEGRDLRQVTSTTKSCREKTELTPDQQTLLHFIMDSYNKQRMPQEITNKILKEEFSAEENFLILTEMATNHVQVLVEFTKKLPGFQTLDHEDQIALLKGSAVEAMFLRSAEIFNKKLPSGHSDLLEERIRNSGISDEYITPMFSFYKSIGELKMTQEEYALLTAIVILSPDRQYIKDREAVEKLQEPLLDVLQKLCKIHQPENPQHFACLLGRLTELRTFNHHHAEMLMSWRVNDHKFTPLLCEIWDVQ
B5: RARb: Retinoic acid receptor β (NR1B2), nuclear hormone receptor cDNA driver (protein, UniProt P10826 1-455, looked up)
Retinoic acid receptor beta: MTTSGHACPVPAVNGHMTHYPATPYPLLFPPVIGGLSLPPLHGLHGHPPPSGCSTPSPATIETQSTSSEELVPSPPSPLPPPRVYKPCFVCQDKSSGYHYGVSACEGCKGFFRRSIQKNMIYTCHRDKNCVINKVTRNRCQYCRLQKCFEVGMSKESVRNDRNKKKKETSKQECTESYEMTAELDDLTEKIRKAHQETFPSLCQLGKYTTNSSADHRVRLDLGLWDKFSELATKCIIKIVEFAKRLPGFTGLTIADQITLLKAACLDILILRICTRYTPEQDTMTFSDGLTLNRTQMHNAGFGPLTDLVFTFANQLLPLEMDDTETGLLSAICLICGDRQDLEEPTKVDKLQEPLLEALKIYIRKRRPSKPHMFPKILMKITDLRSISAKGAERVITLKMEIPGSMPPLIQEMLENSEGHEPLTPSSSGNTAEHSPSISPSSVENSGVSQSPLVQ

Legend:
mGhrelin promoter = assay: NHR-promoter luciferase screen, mGhrelin promoter; assay type: cell-based, mouse; conditions: for Luc. act., normalized to lacZ / Normalized Luc. act., normalized to control: Table 8, mGhrelin; for Results of assays of transcription factor (+/- ligand) with mGhrelin: Table 6d, luciferase activity relative to control (control = 1.00)
Method in brief: (§1)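 CV-1 cells were co-transfected with 50 ng NHR (homodimer or NHR/RXR heterodimer), 100 ng promoter-luciferase construct and 50 ng LacZ. Luciferase was normalized to LacZ and to a no-NHR/no-ligand control.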

mLeptin promoter = assay: NHR-promoter luciferase screen, mLeptin promoter; assay type: cell-based, mouse; conditions: for Luc. act., normalized to lacZ / Normalized Luc. act., normalized to control: Table 7, mLeptin; for Results of assays of transcription factor (+/- ligand) with mLeptin: Table 6d, luciferase activity relative to control (control = 1.00)
Method in brief: as §1

mPOMC promoter = assay: NHR-promoter luciferase screen, mPOMC promoter; assay type: cell-based, mouse; conditions: for Results of assays of transcription factor (+/- ligand) with mPOMC: Table 6d, luciferase activity relative to control (control = 1.00); for Luc. act., normalized to lacZ / Normalized Luc. act., normalized to control: mPOMC promoter, HR component with or without ligand; for Normalized Luc. act., normalized to control: relative to control
Method in brief: as §1

mUCP3 promoter = assay: NHR-promoter luciferase screen, mUCP3 promoter; assay type: cell-based, mouse; conditions: for Normalized Luc. act., normalized to control / Luc. act., normalized to lacZ: mUCP3 promoter reporter; for Normalized Luc. act., normalized to control: HR without or with its ligand, relative to control; for Luc. act., normalized to lacZ: hormone receptor (HR) without or with its ligand; for mUCP3 promoter reporter activity: transcription factor +/- ligand, control = 1.00
Method in brief: as §1

hIRF7 promoter = assay: NHR-promoter luciferase screen, hIRF7 promoter; assay type: cell-based, human; conditions: for Normalized Luc. act., normalized to control / Luc. act., normalized to lacZ: IRF7 promoter reporter; for Normalized Luc. act., normalized to control: HR without or with its ligand, relative to control; for Luc. act., normalized to lacZ: hormone receptor (HR) without or with its ligand; for hIRF7 promoter reporter activity: transcription factor +/- ligand, control = 1.00
Method in brief: as §1

hPPARg1 promoter = assay: NHR-promoter luciferase screen, hPPARg1 promoter; assay type: cell-based, human; conditions: for Luc. act., normalized to lacZ / Normalized Luc. act., normalized to control: PPARG1 promoter, hormone receptor with or without its ligand; for Normalized Luc. act., normalized to control: relative to control; for Results of assays of transcription factor (+/- ligand) with hPPARg1: Table 6d, luciferase activity relative to control (control = 1.00)
Method in brief: as §1

Molecule | Luc. act., normalized to lacZ (mGhrelin promoter) | Normalized Luc. act., normalized to control (mGhrelin promoter) | Results of assays of transcription factor (+/- ligand) with mGhrelin (mGhrelin promoter) | Luc. act., normalized to lacZ (mLeptin promoter) | Normalized Luc. act., normalized to control (mLeptin promoter) | Results of assays of transcription factor (+/- ligand) with mLeptin (mLeptin promoter) | Results of assays of transcription factor (+/- ligand) with mPOMC (mPOMC promoter) | Luc. act., normalized to lacZ (mPOMC promoter) | Normalized Luc. act., normalized to control (mPOMC promoter) | Normalized Luc. act., normalized to control (mUCP3 promoter) | Luc. act., normalized to lacZ (mUCP3 promoter) | mUCP3 promoter reporter activity (mUCP3 promoter) | Normalized Luc. act., normalized to control (hIRF7 promoter) | Luc. act., normalized to lacZ (hIRF7 promoter) | hIRF7 promoter reporter activity (hIRF7 promoter) | Luc. act., normalized to lacZ (hPPARg1 promoter) | Normalized Luc. act., normalized to control (hPPARg1 promoter) | Results of assays of transcription factor (+/- ligand) with hPPARg1 (hPPARg1 promoter)
B1 | 56.1 | 1.1 | 1.07 | 2.6 | 0.9 | 0.89 | 1.02 | 70.0 | 1.0 | 1.7 | 1.1 | 1.69 | 1.3 | 33.6 | 1.27 | 46.0 | 0.7 | 0.67
B2 | 88.8 | 1.7 | 1.70 | 3.6 | 1.2 | 1.21 | 1.53 | 105.9 | 1.5 | 2.0 | 1.3 | 1.98 | 1.8 | 47.5 | 1.80 | 80.1 | 1.2 | 1.16
B3 | 67.2 | 1.3 | 1.29 | 2.4 | 0.8 | 0.82 | 1.43 | 98.5 | 1.4 | 1.8 | 1.2 | 1.76 | 1.5 | 40.6 | 1.54 | 86.6 | 1.3 | 1.26
B4 | 65.7 | 1.3 | 1.26 | 2.8 | 0.9 | 0.95 | 1.20 | 82.5 | 1.2 | 1.3 | 0.9 | 1.30 | 1.6 | 41.8 | 1.59 | 54.8 | 0.8 | 0.80
B5 | 84.4 | 1.6 | 1.61 | 2.7 | 0.9 | 0.91 | 1.85 | 127.4 | 1.8 | 2.1 | 1.4 | 2.08 | 1.8 | 47.2 | 1.79 | 100.6 | 1.5 | 1.46

Reference: patent US20110263454A1, “Methods of Identifying Functional Characteristics of Promoters, Transcription Modifying Proteins and Transcription Modulating Agents” (Salk Institute for Biological Studies, priority 2008, published 2011)
